Experiment [1] addresses T1, HER3 fused with SNAP-Tag, expressed on HEK 293 cells and labelled with Lumi4-Tb (human, UniProt P21860 20-1342, SNAP-tag labelled with BG-Lumi4(Tb)).
T1 construct: whole, on cells; the parts follow the printed name HER3-SNAP-Tag; also called HER3-SNAP-Tag; HEK293-HER3-SNAP-Lumi4-Tb cells; not shown: SNAP-Tag (CISbio Tag-lite plasmid)
As to the kind of experiment: Tag-lite FRET KD of Table 2, compared with the other mAbs.

The target of experiment [2] is T1, HER3 fused with SNAP-Tag, expressed on …. As to the kind of experiment: Tag-lite FRET, d2-labelled mAb on HEK293 cells with Lumi4(Tb)-labelled HER3-SNAP-Tag. Here is the method:
FIGS. 3A-E show Kd determination of mAb to HER3 using the Tag-Lite technology. Cells are transfected with HER3-SNAP-Tag and labeled with BG-Lumi4(Tb), a SNAP-tag subtract. Following incubation with increasing concentrations of indicated d2 labeled mAb directed to HER3, the Kd was determined from the binding curve fitting. The binding curve was obtained by measuring the FRET between the donor Lumi4(Tb) and the acceptor d2-dye. The unspecific binding was evaluated by adding an excess of unlabelled Ab.
TABLE 2 Kd determination of indicated mAb to HER3 using the Tag- Lite technology. Cells were transfected with HER3-SNAP- Tag and labeled withBG-Lumi4(Tb), a SNAP-tag subtract. Following incubation with increasing concentrations of indicated d2 labeled mAb directed to HER3, the Kd was determined from the binding curve fitting. The binding curve was obtained by measuring the FRET between the donor Lumi4(Tb) and the acceptor d2-dye.

Experiment [3] deals with T2, IgB3 (recombinant HER3 extracellular domain fused to a human IgG Fc domain) (human, UniProt P21860 20-643).
T2 construct: extracellular domain; Secreted from HEK-293 cells, purified on protein G / protein A; not shown: Fc domain of a human IgG1
As to the kind of experiment: ELISA, IgB3-coated microplate, purified mAb, HRP anti-mouse IgG. Here is the method: FIGS. 2A-D show monoclonal antibody targeting HER3 extracellular domain. (FIG. 2A) 96 well-plates were coated with 1.5 μg/ml of IgB3, blocked with PBS-BSA (1% weight/vol) and incubated for 1 h with various concentrations of purified mAbs under gentle shaking at RT. After washing, a second 1 h-incubation with HRP-labelled anti-mouse IgG was performed and followed by incubation with 2,2′-azino-bis (3-ethylbenzothiazoline-6-sulfonic acid) for 10 min. The OD at 415 nm was measured using by an ELISA microplate reader. […] After 2 washes, the cells were incubated for 1 h at 4° C. (in the dark) with a secondary anti-mouse IgG Ab coupled to AlexaFluor 488. The fluorescence intensity (F.I.) was measured on the LSRII flow cytometer. […] After 4 washes, the content bound to the beads was eluted and analyzed by immunoblotting (IB) with an antibody to HER3/ErbB-3.
The comparison of the capacity of purified mAbs to bind with IgB3 was evaluated using ELISA (FIG. 2A). […] Each antibody was labeled with the d2-dye, and by measuring the binding of the labeled-mAb to cells presenting Lumi4(Tb)-labeled HER3 using FRET, the KD was determined and reported in Table 2, below. The values obtained correlate with the different patterns of HER3 binding determined by FACS (FIGS. 2B and 2C), although they are distinct from the patterns of IgB3 binding determined using ELISA (FIG. 2A).

For the next experiment, the target named is T3, HER2 (ErbB2) (human, UniProt P04626 23-1255).
T3 construct: whole, on cells; also called NIH/3T3-HER2 cells; NIH/3T3-R2
The experiment is described as follows: flow cytometry on NIH/3T3 cells presenting HER2 alone. Here is the method:
(§1) FIGS. 4A-B show specificity of monoclonal antibodies directed to HER3. (FIG. 4A) NIH/3T3-EGFR, -HER2, -HER3 or -EGFR/HER4 cells were incubated with 25 μg/ml of each mAb for 1.5 h at 4° C. After 2 washes, the cells were incubated for 1 h at 4° C. (in the dark) with a secondary anti-mouse IgG Ab coupled to AlexaFluor 488. The fluorescence intensity (F.I.) was measured on the LSRII flow cytometer. The negative control is made using an irrelevant mouse IgG as primary Ab. The positive control are the following mAb 565 (anti-EGFR), mAb L26 (anti-HER2), mAb 9F7 (anti-HER3), mAb 77 (anti-HER4). (FIG. 4B) The panel presents the geometric mean and the CV of the fluorescence intensity.
(In general: A flow cytometer gives signals particle by particle.)

A further experiment has as its target T4, HER4 (ErbB4) (human, UniProt Q15303 26-1308).
T4 construct: whole, on cells; also called NIH/3T3-EGFR/HER4 cells; NIH/3T3-R1R4
The experiment is described as follows: flow cytometry on NIH/3T3 cells presenting EGFR and HER4. Here is the method: as §1

Another experiment deals with T5, EGFR (ErbB1/HER1) (human, UniProt P00533 25-1210).
T5 construct: whole, on cells; also called NIH/3T3-EGFR cells; NIH/3T3-R1
The experiment is described as follows: flow cytometry on NIH/3T3 cells presenting EGFR alone. Here is the method: as §1

From US20170306049A1 (YEDA RESEARCH AND DEVELOPMENT, published 2017) come the findings set out here.

What is called Kd is the constant that tells how readily two partners part at equilibrium. Read a low Kd as tighter binding. In general, EC50 refers to the concentration that produces a half-maximal response.

T1 sequence (P21860 20-1342): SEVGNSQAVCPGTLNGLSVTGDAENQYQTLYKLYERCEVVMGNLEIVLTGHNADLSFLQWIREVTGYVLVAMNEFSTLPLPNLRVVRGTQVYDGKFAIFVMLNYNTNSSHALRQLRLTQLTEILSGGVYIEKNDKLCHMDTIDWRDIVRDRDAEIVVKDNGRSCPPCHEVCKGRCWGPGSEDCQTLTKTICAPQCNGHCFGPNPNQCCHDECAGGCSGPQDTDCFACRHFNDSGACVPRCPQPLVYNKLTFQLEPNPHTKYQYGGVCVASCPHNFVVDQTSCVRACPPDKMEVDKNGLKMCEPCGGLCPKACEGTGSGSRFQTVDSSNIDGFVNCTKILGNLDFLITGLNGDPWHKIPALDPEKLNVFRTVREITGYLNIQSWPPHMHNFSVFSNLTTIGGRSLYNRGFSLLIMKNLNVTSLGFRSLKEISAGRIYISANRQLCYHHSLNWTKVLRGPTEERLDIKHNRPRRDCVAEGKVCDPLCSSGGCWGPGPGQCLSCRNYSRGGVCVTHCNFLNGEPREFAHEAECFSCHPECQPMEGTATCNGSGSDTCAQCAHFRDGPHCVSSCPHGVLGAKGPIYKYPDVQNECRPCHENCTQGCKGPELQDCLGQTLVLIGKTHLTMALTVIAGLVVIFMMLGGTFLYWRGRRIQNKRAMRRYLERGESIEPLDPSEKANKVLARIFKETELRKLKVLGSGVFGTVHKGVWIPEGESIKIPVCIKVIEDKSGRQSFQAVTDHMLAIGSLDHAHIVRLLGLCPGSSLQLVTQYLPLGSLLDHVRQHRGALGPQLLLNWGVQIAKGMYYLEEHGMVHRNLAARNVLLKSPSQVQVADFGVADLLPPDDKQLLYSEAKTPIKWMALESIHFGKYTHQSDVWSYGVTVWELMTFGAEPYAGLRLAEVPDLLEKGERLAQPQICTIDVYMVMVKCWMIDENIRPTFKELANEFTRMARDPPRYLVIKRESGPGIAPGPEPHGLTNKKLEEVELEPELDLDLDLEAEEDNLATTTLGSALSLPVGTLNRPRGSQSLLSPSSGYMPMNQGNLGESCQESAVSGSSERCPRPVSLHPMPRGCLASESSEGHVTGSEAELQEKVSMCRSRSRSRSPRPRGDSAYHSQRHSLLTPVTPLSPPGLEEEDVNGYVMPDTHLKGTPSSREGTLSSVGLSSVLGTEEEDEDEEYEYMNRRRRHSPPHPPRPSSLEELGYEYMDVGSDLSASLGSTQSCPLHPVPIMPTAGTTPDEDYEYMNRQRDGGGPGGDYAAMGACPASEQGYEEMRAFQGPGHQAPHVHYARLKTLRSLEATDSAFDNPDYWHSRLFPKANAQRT
T2 sequence (P21860 20-643): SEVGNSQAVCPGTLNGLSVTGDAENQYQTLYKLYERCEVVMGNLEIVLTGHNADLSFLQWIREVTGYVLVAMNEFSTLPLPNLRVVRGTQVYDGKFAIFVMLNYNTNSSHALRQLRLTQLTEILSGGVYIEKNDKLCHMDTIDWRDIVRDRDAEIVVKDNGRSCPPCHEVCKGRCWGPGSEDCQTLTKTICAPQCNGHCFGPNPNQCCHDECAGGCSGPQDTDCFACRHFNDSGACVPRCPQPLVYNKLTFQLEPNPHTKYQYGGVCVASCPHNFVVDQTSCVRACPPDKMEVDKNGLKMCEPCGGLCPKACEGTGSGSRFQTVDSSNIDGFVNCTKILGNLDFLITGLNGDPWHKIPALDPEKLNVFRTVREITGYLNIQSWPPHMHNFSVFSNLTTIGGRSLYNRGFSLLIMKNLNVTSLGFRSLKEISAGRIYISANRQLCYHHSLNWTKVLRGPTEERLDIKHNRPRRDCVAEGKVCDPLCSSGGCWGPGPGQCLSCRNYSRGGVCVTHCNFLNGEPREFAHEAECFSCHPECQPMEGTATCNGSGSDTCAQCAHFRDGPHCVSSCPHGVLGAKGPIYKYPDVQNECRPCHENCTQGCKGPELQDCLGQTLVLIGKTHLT
T4 sequence (Q15303 26-1308): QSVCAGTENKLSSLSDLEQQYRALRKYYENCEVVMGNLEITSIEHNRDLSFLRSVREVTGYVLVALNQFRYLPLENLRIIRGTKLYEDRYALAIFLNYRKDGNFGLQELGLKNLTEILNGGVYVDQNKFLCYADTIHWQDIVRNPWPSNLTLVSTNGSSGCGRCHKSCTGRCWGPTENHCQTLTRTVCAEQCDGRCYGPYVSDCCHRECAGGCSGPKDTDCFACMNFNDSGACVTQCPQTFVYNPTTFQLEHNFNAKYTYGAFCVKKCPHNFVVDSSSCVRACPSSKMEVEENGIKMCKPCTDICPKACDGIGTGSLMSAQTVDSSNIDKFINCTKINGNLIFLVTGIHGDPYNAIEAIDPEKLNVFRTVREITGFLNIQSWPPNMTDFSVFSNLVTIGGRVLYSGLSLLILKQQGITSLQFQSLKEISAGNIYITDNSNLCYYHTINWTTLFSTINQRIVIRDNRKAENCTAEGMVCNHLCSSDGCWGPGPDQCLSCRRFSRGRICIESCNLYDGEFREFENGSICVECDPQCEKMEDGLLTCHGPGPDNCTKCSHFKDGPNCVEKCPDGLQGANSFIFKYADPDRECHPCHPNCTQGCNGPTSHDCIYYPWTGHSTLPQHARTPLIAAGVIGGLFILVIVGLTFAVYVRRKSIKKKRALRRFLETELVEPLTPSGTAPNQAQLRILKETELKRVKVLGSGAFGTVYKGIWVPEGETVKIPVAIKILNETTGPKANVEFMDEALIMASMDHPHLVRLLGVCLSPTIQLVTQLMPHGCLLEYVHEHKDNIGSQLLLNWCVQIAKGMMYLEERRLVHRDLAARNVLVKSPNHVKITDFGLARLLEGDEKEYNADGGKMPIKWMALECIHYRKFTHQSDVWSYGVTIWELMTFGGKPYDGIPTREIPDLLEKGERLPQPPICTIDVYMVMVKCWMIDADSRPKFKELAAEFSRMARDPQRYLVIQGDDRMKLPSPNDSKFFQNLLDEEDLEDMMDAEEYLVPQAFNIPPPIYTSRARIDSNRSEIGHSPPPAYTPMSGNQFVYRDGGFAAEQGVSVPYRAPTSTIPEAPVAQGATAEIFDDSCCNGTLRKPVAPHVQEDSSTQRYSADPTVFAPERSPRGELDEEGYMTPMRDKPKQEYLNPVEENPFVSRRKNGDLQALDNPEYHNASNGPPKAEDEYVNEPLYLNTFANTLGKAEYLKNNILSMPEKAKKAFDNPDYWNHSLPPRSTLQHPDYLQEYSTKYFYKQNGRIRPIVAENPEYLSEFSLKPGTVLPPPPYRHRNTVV

B1: anti-HER3 mAb NG83 (antibody, V domains shown)
VH: QIQLVQSGPELKKRGETVKISCKASGYTFTNYGMNWVRQAPGKGLKCMGWINTYAGEPTYADDFKGRFAFSLDSSASTAYLQINNLKNEDMATYFCARGGITGAMDYWGQGTSVTVSS
VL: DVVMTQKTSSLSTSLGDRVTISCRASQDIRNYLNWYQQKPDGTVKLLIYYTSRLHSGVPSRFSGSGSGTDYSLTISDLEQEDIATYFCQQGNTLPWTFGGGTKLAIK
Take B1: the “fold weaker affinity than the other mAbs” value in experiment [1] was found to be 10 fold. The equilibrium dissociation constant (Kd) in experiment [2] is above 14 nM.

B2: anti-HER3 mAb NG33 (antibody, V domains shown)
VH: DVQLQESGPGLVKPSQSLSLTCSVTGYSITSGFYWSWIRQFPGNKLEWMGYIAYDGTSNYNPSLKNRISITRDTSKNQFFLKLKSVTNEDTPTYYCARGGGYYGQLLDYWGQGTSVTVSS
VL: DARMTQSPSSLSASLGDRVTISCRASQDISNYLNWYQQKPDGTVKVLIYNTAKLHSGVPSRFSGSGSGTDYSLTISNLEQEDFATYFCQQGKTLPWTFGGGTKLELK
In experiment [2], B2 yielded an equilibrium dissociation constant (Kd) of 2.96 nM. In other words, the single-digit nanomolar range.

B3: anti-HER3 mAb NG140 (antibody, V domains shown)
VH: QVQLKESGPGLVKPSQSLSLTCSVTGYSITSGYYWNWIRQFPGNKLEWMGSIYYDGSNNYNPSLKNRISVTRDTSKNQFFLKLNSVTTEDTATYYCARDYDVGYAMDYWGQGASVTVSS
VL: DIVLTQSSSYLSVSLGGRVTITCKASDHINNWLAWYQQKPGNAPRLLISGATSLETGVPSRFSGSGSGKDYTLSITSLQTEDVATYYCQQYWSIPWTFGGGTKLEIK
As to B3, the EC50 in experiment [3] was found to be 16.8 nM. The same molecule yielded a Kd in experiment [2] of 6.12 nM.

B4: mAb XC252 (antibody, V domains shown)
VH: EVQLQQSGAELVRPGVSVKISCKGSGYTFTDYAMHWVKQSHAKSLEWIGVISTYYGDPRDNQKFKGKATMTVDKSSSTAYMELARLTSEDSAIYYCARGDYDWYAIDYWGQGTSVTVSS
VL: DVVMTQTPLSLPVSLGDQASISCRSSQSIVHSDGNTYLEWYLQKPGQSPKLLIYKVSNRFSGVPDRFSGSGSGTDFTLKISRVEAEDLGVYYCFQGSHVPPTFGGGTKLEIK
notes: also called XC252-K2 (Lumi4 Tb cryptate labelled)
With B4, in experiment [3], the EC50 was 0.21 nM. Besides, the binding result with HER2 (ErbB2), with HER4 (ErbB4) and with EGFR (ErbB1/HER1) was “no binding (tested: 25 µg/ml)” throughout. In addition, the Kd in experiment [2] was 1.09 nM.
